According to paper PMC5014761:

Biological target: Δ25 FLAG-MRNIP (human) (UniProt Q6NTE8)
Experiment: co-IP; 1 mg whole-cell extract (20 mM Tris-HCl pH 7.5, 150 mM NaCl, 1% Triton X-100, 1 mM DTT, 1 mM EDTA, Benzonase) with M2 anti-FLAG beads 16 hr at 4°C; eluted with FLAG peptide or by heating; immunoblot; HEK293 stable, tetracycline-inducible or transiently transfected cells; in Figure 2D cells exposed to the indicated doses of IR

Sequence of UniProt Q6NTE8 (Q6NTE8 whole entry, stated change not applied): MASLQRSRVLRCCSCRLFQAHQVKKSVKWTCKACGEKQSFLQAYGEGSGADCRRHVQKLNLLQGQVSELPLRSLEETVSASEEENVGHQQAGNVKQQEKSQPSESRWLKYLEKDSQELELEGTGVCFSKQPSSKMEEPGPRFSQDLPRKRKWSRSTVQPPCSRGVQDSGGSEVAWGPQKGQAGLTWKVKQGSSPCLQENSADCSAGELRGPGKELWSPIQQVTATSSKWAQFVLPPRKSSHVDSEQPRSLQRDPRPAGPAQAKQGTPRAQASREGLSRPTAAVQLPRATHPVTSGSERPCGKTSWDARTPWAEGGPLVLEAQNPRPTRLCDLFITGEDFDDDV

- percent reduced binding compared to WT MRNIP: 50 to 70%
Substance: the MRN complex
